According to patent publication US20050042213:

Key:
[1] = system: T1, Z-Pro-Lys-Lys-Glu-AMC (Peptide 1)
T1 sequence: PKKE

Z-Arg-Arg-AMC = system: T2, Z-Arg-Arg-AMC
T2 sequence: RR

[2] = system: T3, pro-heparanase (H60), purified recombinant human 60 kDa latent heparanase
T3 sequence: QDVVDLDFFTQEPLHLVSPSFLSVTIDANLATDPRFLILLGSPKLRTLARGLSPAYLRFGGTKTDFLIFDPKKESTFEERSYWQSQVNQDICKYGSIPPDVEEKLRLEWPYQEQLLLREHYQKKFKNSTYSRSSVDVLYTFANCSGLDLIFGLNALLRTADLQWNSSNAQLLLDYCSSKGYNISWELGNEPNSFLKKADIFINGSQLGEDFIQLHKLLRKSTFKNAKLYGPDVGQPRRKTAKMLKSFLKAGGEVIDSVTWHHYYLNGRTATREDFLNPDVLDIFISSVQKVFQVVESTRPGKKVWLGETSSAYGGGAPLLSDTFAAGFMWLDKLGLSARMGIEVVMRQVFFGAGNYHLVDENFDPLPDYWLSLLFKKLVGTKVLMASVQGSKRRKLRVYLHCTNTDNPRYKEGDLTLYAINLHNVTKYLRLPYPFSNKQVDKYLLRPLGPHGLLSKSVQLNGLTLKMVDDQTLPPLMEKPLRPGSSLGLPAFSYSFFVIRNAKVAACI

Cathepsin B was tested, and the Activity (δfluorescence) (δfluorescence) [1] was 8930, the Activity (δfluorescence) (δfluorescence) (Z-Arg-Arg-AMC) was 53300 and the “heparanase activity after treatment (DMB assay)” value [2] was “Cathepsin B did not activate the pro-heparanase”. For the same substance, the “processing of pro-heparanase in vitro (Western blot)” value [2] was “Cathepsin B in the presence of heparin but not when the cathepsin B inhibitor CA074 was added, also processed the pro-heparanase”.
Cathepsin L showed an Activity (δfluorescence) (δfluorescence) [1] of 0.
In the case of Cathepsin D, the “heparanase activity after treatment (DMB assay)” value [2] is reported as “Cathepsin D treatment caused an increase in heparanase activity and pepstatin A inhibited this activation” and the “processing of pro-heparanase in vitro (Western blot)” value [2] is reported as “When heparin was included in the reaction mixture, heparanase was processed by cathepsin D and a 45 kDa polypeptide was detected”.
